Source: patent publication US20180009871A1 (INTARCIA THERAPEUTICS, published 2018)
Where no end group is shown, it is not given here. [ ]: non-standard residue; d: D form. Aib = CC(C)(N)C(=O)O

How the values were obtained:
[1] = target: human glucagon receptor (GCGR) (human, UniProt P47871 26-477); assay: cell-based or functional assay
[2] = target: human GLP-1 receptor (GLP-1R) (human, UniProt P43220 24-463); assay: cell-based or functional assay
human GLP-1 receptor (GLP-1R), sequence (P43220 24-463): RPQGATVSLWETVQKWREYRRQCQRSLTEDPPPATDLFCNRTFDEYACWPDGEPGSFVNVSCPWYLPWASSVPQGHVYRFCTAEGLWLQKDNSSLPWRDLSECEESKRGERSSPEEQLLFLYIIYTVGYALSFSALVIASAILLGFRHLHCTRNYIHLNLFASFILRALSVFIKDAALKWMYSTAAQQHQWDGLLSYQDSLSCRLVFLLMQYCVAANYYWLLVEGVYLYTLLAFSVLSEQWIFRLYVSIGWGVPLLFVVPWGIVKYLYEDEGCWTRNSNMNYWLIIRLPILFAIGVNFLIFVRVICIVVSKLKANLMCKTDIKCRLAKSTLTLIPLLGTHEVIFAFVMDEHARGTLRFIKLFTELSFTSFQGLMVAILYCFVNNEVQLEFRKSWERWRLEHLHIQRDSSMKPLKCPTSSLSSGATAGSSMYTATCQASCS

B1: Compound A54 (peptide)
peptide: YSHGTFTSDYSKYLD[Aib]KRAQEFV[Aib]WLEDEPSSKEPPPS-OH
modifications: N-terminus assumed
SMILES: CC(C)C[C@H](NC(=O)[C@H](Cc1ccc(O)cc1)NC(=O)[C@H](CCCCN)NC(=O)[C@H](CO)NC(=O)[C@H](Cc1ccc(O)cc1)NC(=O)[C@H](CC(=O)O)NC(=O)[C@H](CO)NC(=O)[C@@H](NC(=O)[C@H](Cc1ccccc1)NC(=O)[C@@H](NC(=O)CNC(=O)[C@H](Cc1c[nH]cn1)NC(=O)[C@H](CO)NC(=O)[C@@H](N)Cc1ccc(O)cc1)[C@@H](C)O)[C@@H](C)O)C(=O)N[C@@H](CC(=O)O)C(=O)NC(C)(C)C(=O)N[C@@H](CCCCN)C(=O)N[C@@H](CCCNC(=N)N)C(=O)N[C@@H](C)C(=O)N[C@@H](CCC(N)=O)C(=O)N[C@@H](CCC(=O)O)C(=O)N[C@@H](Cc1ccccc1)C(=O)N[C@H](C(=O)NC(C)(C)C(=O)N[C@@H](Cc1c[nH]c2ccccc12)C(=O)N[C@@H](CC(C)C)C(=O)N[C@@H](CCC(=O)O)C(=O)N[C@@H](CC(=O)O)C(=O)N[C@@H](CCC(=O)O)C(=O)N1CCC[C@H]1C(=O)N[C@@H](CO)C(=O)N[C@@H](CO)C(=O)N[C@@H](CCCCN)C(=O)N[C@@H](CCC(=O)O)C(=O)N1CCC[C@H]1C(=O)N1CCC[C@H]1C(=O)N1CCC[C@H]1C(=O)N[C@@H](CO)C(=O)O)C(C)C
hGCGR pEC50 (cAMP) [1]: 12.4 pEC50
hGLP1 pEC50 (cAMP) [2]: < 9 pEC50

B2: Compound A52 (peptide)
peptide: YSHGTFTSDYSKYLDIKRAQEFV[Aib]WLEDEPSSGAPPPS-OH
modifications: N-terminus assumed
SMILES: CC[C@H](C)[C@H](NC(=O)[C@H](CC(=O)O)NC(=O)[C@H](CC(C)C)NC(=O)[C@H](Cc1ccc(O)cc1)NC(=O)[C@H](CCCCN)NC(=O)[C@H](CO)NC(=O)[C@H](Cc1ccc(O)cc1)NC(=O)[C@H](CC(=O)O)NC(=O)[C@H](CO)NC(=O)[C@@H](NC(=O)[C@H](Cc1ccccc1)NC(=O)[C@@H](NC(=O)CNC(=O)[C@H](Cc1c[nH]cn1)NC(=O)[C@H](CO)NC(=O)[C@@H](N)Cc1ccc(O)cc1)[C@@H](C)O)[C@@H](C)O)C(=O)N[C@@H](CCCCN)C(=O)N[C@@H](CCCNC(=N)N)C(=O)N[C@@H](C)C(=O)N[C@@H](CCC(N)=O)C(=O)N[C@@H](CCC(=O)O)C(=O)N[C@@H](Cc1ccccc1)C(=O)N[C@H](C(=O)NC(C)(C)C(=O)N[C@@H](Cc1c[nH]c2ccccc12)C(=O)N[C@@H](CC(C)C)C(=O)N[C@@H](CCC(=O)O)C(=O)N[C@@H](CC(=O)O)C(=O)N[C@@H](CCC(=O)O)C(=O)N1CCC[C@H]1C(=O)N[C@@H](CO)C(=O)N[C@@H](CO)C(=O)NCC(=O)N[C@@H](C)C(=O)N1CCC[C@H]1C(=O)N1CCC[C@H]1C(=O)N1CCC[C@H]1C(=O)N[C@@H](CO)C(=O)O)C(C)C
hGCGR pEC50 (cAMP) [1]: 12.4 pEC50
hGLP1 pEC50 (cAMP) [2]: < 9 pEC50

B3: Compound A53 (peptide)
peptide: YSHGTFTSDYSKYLD[Aib]KRAQEFVLWLEDEPSSGAPPPS-OH
modifications: N-terminus assumed
SMILES: CC(C)C[C@H](NC(=O)[C@H](Cc1c[nH]c2ccccc12)NC(=O)[C@H](CC(C)C)NC(=O)[C@@H](NC(=O)[C@H](Cc1ccccc1)NC(=O)[C@H](CCC(=O)O)NC(=O)[C@H](CCC(N)=O)NC(=O)[C@H](C)NC(=O)[C@H](CCCNC(=N)N)NC(=O)[C@H](CCCCN)NC(=O)C(C)(C)NC(=O)[C@H](CC(=O)O)NC(=O)[C@H](CC(C)C)NC(=O)[C@H](Cc1ccc(O)cc1)NC(=O)[C@H](CCCCN)NC(=O)[C@H](CO)NC(=O)[C@H](Cc1ccc(O)cc1)NC(=O)[C@H](CC(=O)O)NC(=O)[C@H](CO)NC(=O)[C@@H](NC(=O)[C@H](Cc1ccccc1)NC(=O)[C@@H](NC(=O)CNC(=O)[C@H](Cc1c[nH]cn1)NC(=O)[C@H](CO)NC(=O)[C@@H](N)Cc1ccc(O)cc1)[C@@H](C)O)[C@@H](C)O)C(C)C)C(=O)N[C@@H](CCC(=O)O)C(=O)N[C@@H](CC(=O)O)C(=O)N[C@@H](CCC(=O)O)C(=O)N1CCC[C@H]1C(=O)N[C@@H](CO)C(=O)N[C@@H](CO)C(=O)NCC(=O)N[C@@H](C)C(=O)N1CCC[C@H]1C(=O)N1CCC[C@H]1C(=O)N1CCC[C@H]1C(=O)N[C@@H](CO)C(=O)O
hGCGR pEC50 (cAMP) [1]: 11.6 pEC50
hGLP1 pEC50 (cAMP) [2]: < 9 pEC50

B4: Compound A55 (peptide)
peptide: YSHGTFTSDYSKYLD[Aib]KRAQEFV[Aib]WLEDEPSSKSPPPS-OH
modifications: N-terminus assumed
SMILES: CC(C)C[C@H](NC(=O)[C@H](Cc1ccc(O)cc1)NC(=O)[C@H](CCCCN)NC(=O)[C@H](CO)NC(=O)[C@H](Cc1ccc(O)cc1)NC(=O)[C@H](CC(=O)O)NC(=O)[C@H](CO)NC(=O)[C@@H](NC(=O)[C@H](Cc1ccccc1)NC(=O)[C@@H](NC(=O)CNC(=O)[C@H](Cc1c[nH]cn1)NC(=O)[C@H](CO)NC(=O)[C@@H](N)Cc1ccc(O)cc1)[C@@H](C)O)[C@@H](C)O)C(=O)N[C@@H](CC(=O)O)C(=O)NC(C)(C)C(=O)N[C@@H](CCCCN)C(=O)N[C@@H](CCCNC(=N)N)C(=O)N[C@@H](C)C(=O)N[C@@H](CCC(N)=O)C(=O)N[C@@H](CCC(=O)O)C(=O)N[C@@H](Cc1ccccc1)C(=O)N[C@H](C(=O)NC(C)(C)C(=O)N[C@@H](Cc1c[nH]c2ccccc12)C(=O)N[C@@H](CC(C)C)C(=O)N[C@@H](CCC(=O)O)C(=O)N[C@@H](CC(=O)O)C(=O)N[C@@H](CCC(=O)O)C(=O)N1CCC[C@H]1C(=O)N[C@@H](CO)C(=O)N[C@@H](CO)C(=O)N[C@@H](CCCCN)C(=O)N[C@@H](CO)C(=O)N1CCC[C@H]1C(=O)N1CCC[C@H]1C(=O)N1CCC[C@H]1C(=O)N[C@@H](CO)C(=O)O)C(C)C
hGCGR pEC50 (cAMP) [1]: 12.2 pEC50
hGLP1 pEC50 (cAMP) [2]: < 9 pEC50

B5: Compound A56 (peptide)
peptide: YSHGTFTSDYSKYLD[Aib]KRAQEFV[Aib]WLEDEPKSKAPPPS-OH
modifications: N-terminus assumed
SMILES: CC(C)C[C@H](NC(=O)[C@H](Cc1ccc(O)cc1)NC(=O)[C@H](CCCCN)NC(=O)[C@H](CO)NC(=O)[C@H](Cc1ccc(O)cc1)NC(=O)[C@H](CC(=O)O)NC(=O)[C@H](CO)NC(=O)[C@@H](NC(=O)[C@H](Cc1ccccc1)NC(=O)[C@@H](NC(=O)CNC(=O)[C@H](Cc1c[nH]cn1)NC(=O)[C@H](CO)NC(=O)[C@@H](N)Cc1ccc(O)cc1)[C@@H](C)O)[C@@H](C)O)C(=O)N[C@@H](CC(=O)O)C(=O)NC(C)(C)C(=O)N[C@@H](CCCCN)C(=O)N[C@@H](CCCNC(=N)N)C(=O)N[C@@H](C)C(=O)N[C@@H](CCC(N)=O)C(=O)N[C@@H](CCC(=O)O)C(=O)N[C@@H](Cc1ccccc1)C(=O)N[C@H](C(=O)NC(C)(C)C(=O)N[C@@H](Cc1c[nH]c2ccccc12)C(=O)N[C@@H](CC(C)C)C(=O)N[C@@H](CCC(=O)O)C(=O)N[C@@H](CC(=O)O)C(=O)N[C@@H](CCC(=O)O)C(=O)N1CCC[C@H]1C(=O)N[C@@H](CCCCN)C(=O)N[C@@H](CO)C(=O)N[C@@H](CCCCN)C(=O)N[C@@H](C)C(=O)N1CCC[C@H]1C(=O)N1CCC[C@H]1C(=O)N1CCC[C@H]1C(=O)N[C@@H](CO)C(=O)O)C(C)C
hGCGR pEC50 (cAMP) [1]: 12.3 pEC50
hGLP1 pEC50 (cAMP) [2]: < 9 pEC50

B6: Compound A51 (peptide)
peptide: YSHGTFTSDYSKYLDLKRAQEFV[Aib]WLEDEPSSGAPPPS-OH
modifications: N-terminus assumed
SMILES: CC(C)C[C@H](NC(=O)[C@H](CC(=O)O)NC(=O)[C@H](CC(C)C)NC(=O)[C@H](Cc1ccc(O)cc1)NC(=O)[C@H](CCCCN)NC(=O)[C@H](CO)NC(=O)[C@H](Cc1ccc(O)cc1)NC(=O)[C@H](CC(=O)O)NC(=O)[C@H](CO)NC(=O)[C@@H](NC(=O)[C@H](Cc1ccccc1)NC(=O)[C@@H](NC(=O)CNC(=O)[C@H](Cc1c[nH]cn1)NC(=O)[C@H](CO)NC(=O)[C@@H](N)Cc1ccc(O)cc1)[C@@H](C)O)[C@@H](C)O)C(=O)N[C@@H](CCCCN)C(=O)N[C@@H](CCCNC(=N)N)C(=O)N[C@@H](C)C(=O)N[C@@H](CCC(N)=O)C(=O)N[C@@H](CCC(=O)O)C(=O)N[C@@H](Cc1ccccc1)C(=O)N[C@H](C(=O)NC(C)(C)C(=O)N[C@@H](Cc1c[nH]c2ccccc12)C(=O)N[C@@H](CC(C)C)C(=O)N[C@@H](CCC(=O)O)C(=O)N[C@@H](CC(=O)O)C(=O)N[C@@H](CCC(=O)O)C(=O)N1CCC[C@H]1C(=O)N[C@@H](CO)C(=O)N[C@@H](CO)C(=O)NCC(=O)N[C@@H](C)C(=O)N1CCC[C@H]1C(=O)N1CCC[C@H]1C(=O)N1CCC[C@H]1C(=O)N[C@@H](CO)C(=O)O)C(C)C
hGCGR pEC50 (cAMP) [1]: 12.3 pEC50
hGLP1 pEC50 (cAMP) [2]: < 9 pEC50

B7: Compound A50 (peptide)
peptide: YSHGTFTSDYSKYLD[Aib]KRAQEFV[Aib]WLEDEKRNKPPPS-OH
modifications: N-terminus assumed
SMILES: CC(C)C[C@H](NC(=O)[C@H](Cc1ccc(O)cc1)NC(=O)[C@H](CCCCN)NC(=O)[C@H](CO)NC(=O)[C@H](Cc1ccc(O)cc1)NC(=O)[C@H](CC(=O)O)NC(=O)[C@H](CO)NC(=O)[C@@H](NC(=O)[C@H](Cc1ccccc1)NC(=O)[C@@H](NC(=O)CNC(=O)[C@H](Cc1c[nH]cn1)NC(=O)[C@H](CO)NC(=O)[C@@H](N)Cc1ccc(O)cc1)[C@@H](C)O)[C@@H](C)O)C(=O)N[C@@H](CC(=O)O)C(=O)NC(C)(C)C(=O)N[C@@H](CCCCN)C(=O)N[C@@H](CCCNC(=N)N)C(=O)N[C@@H](C)C(=O)N[C@@H](CCC(N)=O)C(=O)N[C@@H](CCC(=O)O)C(=O)N[C@@H](Cc1ccccc1)C(=O)N[C@H](C(=O)NC(C)(C)C(=O)N[C@@H](Cc1c[nH]c2ccccc12)C(=O)N[C@@H](CC(C)C)C(=O)N[C@@H](CCC(=O)O)C(=O)N[C@@H](CC(=O)O)C(=O)N[C@@H](CCC(=O)O)C(=O)N[C@@H](CCCCN)C(=O)N[C@@H](CCCNC(=N)N)C(=O)N[C@@H](CC(N)=O)C(=O)N[C@@H](CCCCN)C(=O)N1CCC[C@H]1C(=O)N1CCC[C@H]1C(=O)N1CCC[C@H]1C(=O)N[C@@H](CO)C(=O)O)C(C)C
hGCGR pEC50 (cAMP) [1]: 11.5 pEC50
hGLP1 pEC50 (cAMP) [2]: < 9 pEC50
